The values that follow come from paper PMC10104300, “Conserved intramolecular networks in GDAP1 are closely connected to CMT-linked mutations and protein stability” (PLOS ONE, 2023).

Data set [1] deals with wild-type GDAP1 (GDAP1Δ303–358) (human) (UniProt Q8TB36). Briefly: batch-mode SAXS; concentration range 1–4 mg/ml, P12 beamline EMBL/DESY.
Data set [2] concerns the molecule itself. Nature of the data set: SEC-SAXS; Arg310 mutants in GDAP1Δ319–358, at lower concentration than all the other mutants; BioSEC3-300 column, 25 mM HEPES pH 7.5, 300 mM NaCl, +15°C; two peaks (dimer and monomer).
Data set [3] deals with the molecule itself. Nature of the data set: SEC-SAXS; variants in GDAP1Δ303–358; 100 μl at 1.7–36 mg/ml (maximum concentration for each variant) injected onto a BioSEC3-300 column, 25 mM HEPES pH 7.5, 300 mM NaCl, +15°C; top of the peak analysed.

Take “wild-type GDAP1 (GDAP1Δ303–358) (from UniProt Q8TB36-1 1-302) (domain or fragment)”: the stoichiometry N in data set [1] was determined as 2.

B1: GDAP1Δ319–358 R310Q (domain or fragment, human, UniProt Q8TB36-1 1-318, looked up)
chain: MAERQEEQRGSPPLRAEGKADAEVKLILYHWTHSFSSQKVRLVIAEKALKCEEHDVSLPLSEHNEPWFMRLNSTGEVPVLIHGENIICEATQIIDYLEQTFLDERTPRLMPDKESMYYPRVQHYRELLDSLPMDAYTHGCILHPELTVDSMIPAYATTRIRSQIGNTESELKKLAEENPDLQEAYIAKQKRLKSKLLDHDNVKYLKKILDELEKVLDQVETELQRRNEETPEEGQQPWLCGESFTLADVSLAVTLHRLKFLGFARRNWGNGKRPNLETYYERVLKRKTFNKVLGHVNNILISAVLPTAFQVAKKRAPK
notes: human GDAP1 lacking residues 319-358 (GDAP1Δ319–358) with the CMT-linked mutation R310Q; CMT disease variant; eluted as dimer (main peak) and monomer; source: E. coli BL21(DE3), autoinduction, purified (Ni-NTA, TEV cleavage, reverse Ni-NTA, SEC); not shown: His6, N-terminal, cleaved
As for B1, the “stoichiometry N” value in data set [2] stood at 2.

B2: GDAP1Δ319–358 R310W (domain or fragment, human, UniProt Q8TB36-1 1-318, looked up)
chain: MAERQEEQRGSPPLRAEGKADAEVKLILYHWTHSFSSQKVRLVIAEKALKCEEHDVSLPLSEHNEPWFMRLNSTGEVPVLIHGENIICEATQIIDYLEQTFLDERTPRLMPDKESMYYPRVQHYRELLDSLPMDAYTHGCILHPELTVDSMIPAYATTRIRSQIGNTESELKKLAEENPDLQEAYIAKQKRLKSKLLDHDNVKYLKKILDELEKVLDQVETELQRRNEETPEEGQQPWLCGESFTLADVSLAVTLHRLKFLGFARRNWGNGKRPNLETYYERVLKRKTFNKVLGHVNNILISAVLPTAFWVAKKRAPK
notes: human GDAP1 lacking residues 319-358 (GDAP1Δ319–358) with the CMT-linked mutation R310W; CMT disease variant; eluted as monomer (highest peak) and dimer; source: E. coli BL21(DE3), autoinduction, purified (Ni-NTA, TEV cleavage, reverse Ni-NTA, SEC); not shown: His6, N-terminal, cleaved
For the molecule B2, the “stoichiometry N” value in data set [2] is 2.

B3: GDAP1Δ303–358 R120Q (domain or fragment, human, UniProt Q8TB36-1 1-302, looked up)
chain: MAERQEEQRGSPPLRAEGKADAEVKLILYHWTHSFSSQKVRLVIAEKALKCEEHDVSLPLSEHNEPWFMRLNSTGEVPVLIHGENIICEATQIIDYLEQTFLDERTPRLMPDKESMYYPQVQHYRELLDSLPMDAYTHGCILHPELTVDSMIPAYATTRIRSQIGNTESELKKLAEENPDLQEAYIAKQKRLKSKLLDHDNVKYLKKILDELEKVLDQVETELQRRNEETPEEGQQPWLCGESFTLADVSLAVTLHRLKFLGFARRNWGNGKRPNLETYYERVLKRKTFNKVLGHVNNILIS
notes: human GDAP1 lacking residues 303-358 (GDAP1Δ303–358) with the CMT-linked mutation R120Q; CMT disease variant; source: E. coli BL21(DE3), autoinduction, purified (Ni-NTA, TEV cleavage, reverse Ni-NTA, SEC); not shown: His6, N-terminal, cleaved
Turning to B3, the “stoichiometry N” value in data set [3] was determined as 2.

B4: GDAP1Δ303–358 A247V (domain or fragment, human, UniProt Q8TB36-1 1-302, looked up)
chain: MAERQEEQRGSPPLRAEGKADAEVKLILYHWTHSFSSQKVRLVIAEKALKCEEHDVSLPLSEHNEPWFMRLNSTGEVPVLIHGENIICEATQIIDYLEQTFLDERTPRLMPDKESMYYPRVQHYRELLDSLPMDAYTHGCILHPELTVDSMIPAYATTRIRSQIGNTESELKKLAEENPDLQEAYIAKQKRLKSKLLDHDNVKYLKKILDELEKVLDQVETELQRRNEETPEEGQQPWLCGESFTLVDVSLAVTLHRLKFLGFARRNWGNGKRPNLETYYERVLKRKTFNKVLGHVNNILIS
notes: human GDAP1 lacking residues 303-358 (GDAP1Δ303–358) with the CMT-linked mutation A247V; CMT disease variant; source: E. coli BL21(DE3), autoinduction, purified (Ni-NTA, TEV cleavage, reverse Ni-NTA, SEC); not shown: His6, N-terminal, cleaved
Consider B4, for which the “stoichiometry N” value in data set [3] stood at 2.

B5: GDAP1Δ303–358 R161H (domain or fragment, human, UniProt Q8TB36-1 1-302, looked up)
chain: MAERQEEQRGSPPLRAEGKADAEVKLILYHWTHSFSSQKVRLVIAEKALKCEEHDVSLPLSEHNEPWFMRLNSTGEVPVLIHGENIICEATQIIDYLEQTFLDERTPRLMPDKESMYYPRVQHYRELLDSLPMDAYTHGCILHPELTVDSMIPAYATTRIHSQIGNTESELKKLAEENPDLQEAYIAKQKRLKSKLLDHDNVKYLKKILDELEKVLDQVETELQRRNEETPEEGQQPWLCGESFTLADVSLAVTLHRLKFLGFARRNWGNGKRPNLETYYERVLKRKTFNKVLGHVNNILIS
notes: human GDAP1 lacking residues 303-358 (GDAP1Δ303–358) with the CMT-linked mutation R161H; CMT disease variant; source: E. coli BL21(DE3), autoinduction, purified (Ni-NTA, TEV cleavage, reverse Ni-NTA, SEC); not shown: His6, N-terminal, cleaved
In the case of B5, the “stoichiometry N” value in data set [3] came to 2.

B6: GDAP1Δ303–358 H256R (domain or fragment, human, UniProt Q8TB36-1 1-302, looked up)
chain: MAERQEEQRGSPPLRAEGKADAEVKLILYHWTHSFSSQKVRLVIAEKALKCEEHDVSLPLSEHNEPWFMRLNSTGEVPVLIHGENIICEATQIIDYLEQTFLDERTPRLMPDKESMYYPRVQHYRELLDSLPMDAYTHGCILHPELTVDSMIPAYATTRIRSQIGNTESELKKLAEENPDLQEAYIAKQKRLKSKLLDHDNVKYLKKILDELEKVLDQVETELQRRNEETPEEGQQPWLCGESFTLADVSLAVTLRRLKFLGFARRNWGNGKRPNLETYYERVLKRKTFNKVLGHVNNILIS
notes: human GDAP1 lacking residues 303-358 (GDAP1Δ303–358) with the CMT-linked mutation H256R; CMT disease variant; source: E. coli BL21(DE3), autoinduction, purified (Ni-NTA, TEV cleavage, reverse Ni-NTA, SEC); not shown: His6, N-terminal, cleaved
On to B6, for which the “stoichiometry N” value in data set [3] was found to be 2.

B7: GDAP1Δ303–358 R282H (domain or fragment, human, UniProt Q8TB36-1 1-302, looked up)
chain: MAERQEEQRGSPPLRAEGKADAEVKLILYHWTHSFSSQKVRLVIAEKALKCEEHDVSLPLSEHNEPWFMRLNSTGEVPVLIHGENIICEATQIIDYLEQTFLDERTPRLMPDKESMYYPRVQHYRELLDSLPMDAYTHGCILHPELTVDSMIPAYATTRIRSQIGNTESELKKLAEENPDLQEAYIAKQKRLKSKLLDHDNVKYLKKILDELEKVLDQVETELQRRNEETPEEGQQPWLCGESFTLADVSLAVTLHRLKFLGFARRNWGNGKRPNLETYYEHVLKRKTFNKVLGHVNNILIS
notes: human GDAP1 lacking residues 303-358 (GDAP1Δ303–358) with the CMT-linked mutation R282H; CMT disease variant; source: E. coli BL21(DE3), autoinduction, purified (Ni-NTA, TEV cleavage, reverse Ni-NTA, SEC); not shown: His6, N-terminal, cleaved
Take B7: the “stoichiometry N” value in data set [3] was determined as 2.
